The target in assay [1] is tetrasome (DNA-(H3-H4)2 tetramer complex) (Xenopus laevis) (UniProt P84233). In words: FRET or BRET. On the technique in general: Bioluminescence resonance energy transfer reports proximity on the nanometre scale.
Assay [2] has as its target mouse Nap1 (mNap1) single-cysteine mutant labeled with Alexa 546-C5-maleimide (mouse) (UniProt P28656). The assay can be described thus: other fluorescence titration.

By Kd is commonly meant the equilibrium constant for the complex coming apart. The substance “H2A-H2B_(A488) histone dimer (from UniProt P06897 1-130) (complex)” returned a Kd in assay [1] of 0.8 nM.

“uH2B containing histone dimer (H2A-uH2B) (from UniProt P06897 1-130; P0CG48 1-76) (complex)” came in with a Kd in assay [2] of 0.4 nM. Substance “uH2A containing histone dimer (uH2A-H2B) (from UniProt P0CG48 1-76; P02281 1-126) (complex)” came in with a Kd in assay [2] of 0.5 nM. For the substance “unmodified H2A-H2B histone dimer (from UniProt P06897 1-130; P02281 1-126) (complex)”, the Kd in assay [2] was determined as 0.8 nM. “H2A_(A488)-H2B histone dimer (from UniProt P02281 1-126) (complex)” registered a Kd in assay [1] of 0.7 nM.

Source of the values: publication PMC3535264.
